Data taken from patent US20250313644A1 (FUTUREGEN BIOPHARMACEUTICAL BEIJING, published 2025).

Key:
FASL [1] = molecular target: T1, FASL (UniProt P48023 134-281, limits assumed); assay: ELISA, coated FASL
T1 sequence (looked up): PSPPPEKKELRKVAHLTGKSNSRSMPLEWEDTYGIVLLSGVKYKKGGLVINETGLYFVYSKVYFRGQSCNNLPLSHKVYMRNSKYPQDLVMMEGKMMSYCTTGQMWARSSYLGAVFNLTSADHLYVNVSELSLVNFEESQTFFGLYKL
Protocol: (§1) In this experiment, ELISA was used to assess the binding ability of monoclonal antibodies to TL1A homologous molecules. Representative members of the TNF ligand superfamily, TNFα, LT-α, LIGHT and FASL, were selected for binding testing. 1 μg/mL of TNFα, LT-α, LIGHT or FASL was coated in a microplate with a carbonate buffer solution at pH=9.6, 100 μL per well, and the microplate was incubated at 4° C. overnight. The microplate was then washed 5 times with PBST, blocked with 300 μL/well of PBS containing 1% BSA, and was incubated at room temperature for 1 hour. After washing 5 times with PBST, about 100 μL each of the M701 monoclonal antibodies and the control antibodies were added to each well, and were incubated at room temperature for 1 hour. After washing 5 times with PBST, 100 μL of HRP-anti-human Fc (Sino Biological) was added to each well, and was incubated at room temperature for 1 hour. After washing 5 times with PBST, 100 μL of colorimetric substrate TMB was added to each well, and color was developed at room temperature for 10 minutes, followed by addition of 1M sulfuric acid to terminate the reaction. OD450 nm was recorded on a microplate reader.

TNFα [2] = molecular target: T2, TNFα (UniProt P01375 77-233); assay: ELISA, coated TNF-α, Ab 0.391 nM
T2 sequence (P01375 77-233 limits assumed): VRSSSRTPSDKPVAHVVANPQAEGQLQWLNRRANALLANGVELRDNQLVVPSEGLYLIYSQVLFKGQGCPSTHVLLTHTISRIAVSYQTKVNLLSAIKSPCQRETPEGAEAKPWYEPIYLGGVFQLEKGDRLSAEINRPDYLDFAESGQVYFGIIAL
Protocol: as §1

LT-α [3] = molecular target: T3, LT-α (UniProt P01374 35-205); assay: ELISA, coated LT-α, Ab 1.563 nM
T3 sequence (looked up): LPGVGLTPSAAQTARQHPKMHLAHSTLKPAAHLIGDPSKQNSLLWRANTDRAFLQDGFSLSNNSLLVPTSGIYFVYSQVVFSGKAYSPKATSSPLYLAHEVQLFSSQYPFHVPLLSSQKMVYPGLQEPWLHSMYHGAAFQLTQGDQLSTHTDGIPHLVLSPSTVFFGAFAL
Protocol: as §1

LT-α [4] = molecular target: T3, LT-α; assay: ELISA, coated LT-α, Ab 100 nM
Protocol: as §1

LT-α [5] = molecular target: T3, LT-α; assay: ELISA, coated LT-α
Protocol: as §1

human TL1A (HuTL1A) [6] = molecular target: T4, human TL1A (HuTL1A) (human, UniProt O95150 57-251, limits assumed, biotin-labelled in some assays (site not stated)); assay: cell-based or functional assay
T4 sequence: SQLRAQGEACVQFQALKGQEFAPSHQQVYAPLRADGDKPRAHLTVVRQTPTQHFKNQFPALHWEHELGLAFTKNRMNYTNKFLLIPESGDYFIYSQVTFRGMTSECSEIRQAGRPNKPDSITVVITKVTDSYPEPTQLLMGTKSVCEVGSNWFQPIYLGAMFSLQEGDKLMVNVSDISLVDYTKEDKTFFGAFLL

FASL [7] = molecular target: T1, FASL; assay: ELISA, coated FASL, Ab 0.000 nM (blank)
Protocol: as §1

TNFα [8] = molecular target: T2, TNFα; assay: ELISA, coated TNF-α, Ab 100 nM
Protocol: as §1

LT-α [9] = molecular target: T3, LT-α; assay: ELISA, coated LT-α, Ab 0.391 nM
Protocol: as §1

LIGHT [10] = molecular target: T5, LIGHT (UniProt O43557 74-240, limits assumed); assay: ELISA, coated LIGHT, Ab 0.000 nM (blank)
T5 sequence (O43557 74-240 limits assumed): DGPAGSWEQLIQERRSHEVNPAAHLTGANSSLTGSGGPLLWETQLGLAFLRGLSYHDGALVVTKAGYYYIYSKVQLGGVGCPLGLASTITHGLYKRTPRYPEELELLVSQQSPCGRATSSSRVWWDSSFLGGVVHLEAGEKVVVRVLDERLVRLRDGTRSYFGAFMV
Protocol: as §1

LIGHT [11] = molecular target: T5, LIGHT; assay: ELISA, coated LIGHT, Ab 1.563 nM
Protocol: as §1

LT-α [12] = molecular target: T3, LT-α; assay: ELISA, coated LT-α, Ab 6.25 nM
Protocol: as §1

LIGHT [13] = molecular target: T5, LIGHT; assay: ELISA, coated LIGHT, Ab 25 nM
Protocol: as §1

human TL1A (HuTL1A) [14] = molecular target: T4, human TL1A (HuTL1A); assay: cell-based or functional assay; remark: listed apart in the source
TNFα [15] = molecular target: T2, TNFα; assay: ELISA, coated TNF-α, Ab 25 nM
Protocol: as §1

LT-α [16] = molecular target: T3, LT-α; assay: ELISA, coated LT-α, Ab 0.000 nM (blank)
Protocol: as §1

TNFα [17] = molecular target: T2, TNFα; assay: ELISA, coated TNF-α, Ab 6.25 nM
Protocol: as §1

FASL [18] = molecular target: T1, FASL; assay: ELISA, coated FASL, Ab 0.391 nM
Protocol: as §1

LIGHT [19] = molecular target: T5, LIGHT; assay: ELISA, coated LIGHT, Ab 0.391 nM
Protocol: as §1

FASL [20] = molecular target: T1, FASL; assay: ELISA, coated FASL, Ab 25 nM
Protocol: as §1

FASL [21] = molecular target: T1, FASL; assay: ELISA, coated FASL, Ab 6.25 nM
Protocol: as §1

LT-α [22] = molecular target: T3, LT-α; assay: ELISA, coated LT-α, Ab 25 nM
Protocol: as §1

TNFα [23] = molecular target: T2, TNFα; assay: ELISA, coated TNF-α, Ab 1.563 nM
Protocol: as §1

LIGHT [24] = molecular target: T5, LIGHT; assay: ELISA, coated LIGHT, Ab 6.25 nM
Protocol: as §1

TNFα [25] = molecular target: T2, TNFα; assay: ELISA, coated TNF-α, Ab 0.000 nM (blank)
Protocol: as §1

LIGHT [26] = molecular target: T5, LIGHT; assay: ELISA, coated LIGHT
Protocol: as §1

human TL1A (HuTL1A) [27] = molecular target: T4, human TL1A (HuTL1A); assay: DLS, antigen and antibody mixed in equal moles
Protocol: 60 μM antigen and antibody was mixed in equal moles, incubated at room temperature for 30 minutes, and then the molecular size was detected using UNCLE or SEC.

LIGHT [28] = molecular target: T5, LIGHT; assay: ELISA, coated LIGHT, Ab 100 nM
Protocol: as §1

TNFα [29] = molecular target: T2, TNFα; assay: ELISA, coated TNFα
Protocol: as §1

FASL [30] = molecular target: T1, FASL; assay: ELISA, coated FASL, Ab 1.563 nM
Protocol: as §1

FASL [31] = molecular target: T1, FASL; assay: ELISA, coated FASL, Ab 100 nM
Protocol: as §1

B1: M701-4019 (antibody, human IgG1, kappa, L234A L235A, V domains shown)
VH: ELQLQESGPGLVKPSETLSLTCAVSGVSFTDYHWAWIRQPPGKGLEWIGDINHRGHTNYNPSLKSRVTVSIDTSKNQFSLKLSSVTAADTAVYYCARDYPNFIYDYWGQGTLVTVSS
VL: DIQLTQSPGTLSLSPGERATLSCRASQSVSNYLAWYQQKPGQAPRLLIYGASRRATGIPARFSGSGSGTDFTLTISSLEPEDFAVYYCQQYAASPLTFGQGTKVEIKR
notes: Fc-engineered IgG1
binding result (FASL [1]): no binding (tested: 100 nM)
OD450 nm (TNFα [2]): 0.0567
OD450 nm (LT-α [3]): 0.0602
OD450 nm (LT-α [4]): 0.067
binding result (LT-α [5]): no binding (tested: 100 nM)
IC50 (read off the curve); IFN-γ of human T cells with IL-12, IL-18 and exogenous human TL1A (human TL1A (HuTL1A) [6]): ~0.2 nM
OD450 nm (FASL [7]): 0.0602
OD450 nm (TNFα [8]): 0.105
OD450 nm (LT-α [9]): 0.0572
OD450 nm (LIGHT [10]): 0.0563
OD450 nm (LIGHT [11]): 0.0539
OD450 nm (LT-α [12]): 0.0566
OD450 nm (LIGHT [13]): 0.061
IC50 (read off the curve); SEAP reporter in HEK293T/DR3-NFκB cells with soluble TL1A, OD655 (human TL1A (HuTL1A) [14]): ~1 nM
OD450 nm (TNFα [15]): 0.066
OD450 nm (LT-α [16]): 0.0648
OD450 nm (TNFα [17]): 0.0591
OD450 nm (FASL [18]): 0.0506
OD450 nm (LIGHT [19]): 0.0528
OD450 nm (FASL [20]): 0.0612
OD450 nm (FASL [21]): 0.0529
OD450 nm (LT-α [22]): 0.0627
OD450 nm (TNFα [23]): 0.057
OD450 nm (LIGHT [24]): 0.0572
OD450 nm (TNFα [25]): 0.0748
binding result (LIGHT [26]): no binding (tested: 100 nM)
Ave Z-dia (nm) of the antigen-antibody complex (human TL1A (HuTL1A) [27]): 18.5 nm
OD450 nm (LIGHT [28]): 0.0942
binding result (TNFα [29]): no binding (tested: 100 nM)
OD450 nm (FASL [30]): 0.0514
OD450 nm (FASL [31]): 0.0886
